Drawing on publication PMC5467530, this text covers Km and kcat for one protein.

Substrate in the data set: O=c1[nH]cnc2c([C@@H]3O[C@H](COP(=O)(O)O)[C@@H](O)[C@H]3O)n[nH]c12
The experiment in a line: pyruvate kinase / lactate dehydrogenase coupled assay, NADH oxidation by UV. It is filed as biochemical, Streptomyces kaniharaensis. The settings on record: 2.5 mM L-aspartate, 0.125 mM GTP.

B1: ForA (Streptomyces kaniharaensis) (protein)
chain: MLKAIVGLNWGDEGKGRMVDNLSAEADYTVRYHGGSNAGHTIHTDQGKFKLHSLPSSVLHPTVTGVLGPGMTVDVEGFLAEFEALREHGVTADRLLVADAASVCFPFHRDLDGAEEERLSDGRYGSTRRGISPAYGDRVMKKTLLVRELFDRENLPARLAAVLDWANERIVRIYGGAPLSLDEVTRWAADVAARLEPHVVDATALLGKALDDGATVIAEGQLGALKDLYYGIYPFTTSSTCLAGHAPVGIGVPWARVDRTIGVTKAFSSCVGAGPFVTEFDEERADRLRRQWGEYGSTTNRPRRLGAFDAVATRYGVRVQGADEVAITNLDQLSGTGELDLCVAYERAGRTVREFSPRPAELAASTPVHETLSGWDEDISGVRTYEQLPAGAREYVEAIQELLGVPVRHVSVGSHRDALIEIK
With B1, the Km was found to be 74 ± 25 µM and the kcat was determined as 0.3 ± 0.033 s⁻¹.

In general, Km refers to the substrate concentration at which the rate is half of its maximum. By kcat is commonly meant the number of substrate molecules converted per active site and unit of time at saturation.
